Assay results from PMC5866929.

Assays:
wild-type LacI = wild-type LacI (UniProt P03023 1-360); test: EMSA
His6-LacI-59 [1] = biological target: T1, His6-LacI-59 (UniProt P03023 59-360, del1-58); test: EMSA
His6-LacI-59 [2] = biological target: T1, His6-LacI-59; test: filter binding
His6-LacI-51 = His6-LacI-51 (UniProt P03023 51-360, del1-50); test: filter binding
Chain of His6-LacI-51 (P03023 51-360, stated change not applied): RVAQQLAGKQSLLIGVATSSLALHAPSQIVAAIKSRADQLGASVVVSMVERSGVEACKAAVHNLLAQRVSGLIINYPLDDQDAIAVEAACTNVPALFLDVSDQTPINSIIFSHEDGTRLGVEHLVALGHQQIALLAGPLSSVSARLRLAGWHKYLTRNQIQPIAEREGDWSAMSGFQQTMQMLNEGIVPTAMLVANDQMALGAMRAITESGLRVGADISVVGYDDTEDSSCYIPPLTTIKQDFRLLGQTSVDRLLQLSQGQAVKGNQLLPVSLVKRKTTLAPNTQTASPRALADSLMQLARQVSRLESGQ

T1 sequence (P03023 59-360, stated change not applied): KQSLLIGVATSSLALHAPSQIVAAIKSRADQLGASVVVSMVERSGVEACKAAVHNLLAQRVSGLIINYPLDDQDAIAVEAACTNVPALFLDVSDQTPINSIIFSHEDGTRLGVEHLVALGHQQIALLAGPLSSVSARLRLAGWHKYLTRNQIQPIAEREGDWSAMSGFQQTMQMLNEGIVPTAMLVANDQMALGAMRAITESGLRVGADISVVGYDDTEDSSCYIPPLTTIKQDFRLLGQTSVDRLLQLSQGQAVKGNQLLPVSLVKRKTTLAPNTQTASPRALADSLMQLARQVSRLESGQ
Chain of wild-type LacI (P03023 whole entry): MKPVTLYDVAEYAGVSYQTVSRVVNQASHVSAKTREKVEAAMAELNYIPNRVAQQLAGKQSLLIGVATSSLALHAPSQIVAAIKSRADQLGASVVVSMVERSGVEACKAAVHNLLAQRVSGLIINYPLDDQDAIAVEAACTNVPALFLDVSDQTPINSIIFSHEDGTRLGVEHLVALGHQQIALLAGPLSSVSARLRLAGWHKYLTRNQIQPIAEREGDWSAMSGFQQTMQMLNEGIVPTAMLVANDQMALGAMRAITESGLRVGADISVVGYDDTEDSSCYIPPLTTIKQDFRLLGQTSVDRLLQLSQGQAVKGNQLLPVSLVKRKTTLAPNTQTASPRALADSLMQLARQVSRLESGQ

B1: O1 operator 40 bp (dsDNA)
DNA 1: TGTTGTGTGGAATTGTGAGCGGATAACAATTTCACACAGG
DNA 2: CCTGTGTGAAATTGTTATCCGCTCACAATTCCACACAACA
- binding result (wild-type LacI): binds
- binding result (His6-LacI-59 [1]): no binding

B2: Oscram 40 bp (dsDNA)
DNA 1: GTCATAAGTATCGTGAACTGCTGAGAGTGCTAGCGTTAGT
DNA 2: ACTAACGCTAGCACTCTCAGCAGTTCACGATACTTATGAC
- binding result (His6-LacI-59 [2]): no binding
- apparent K (half saturation) (His6-LacI-51): ~5 µM
